Experimental findings from publication doi:10.1101/605725 are described below.

The target of this series is GST-Nxf2 first LRR region (1-285) (UniProt Q9VV73 1-285). Kind of series: EMSA. In general terms: A gel shift assay detects complexes by their altered migration in electrophoresis.
Sequence of GST-Nxf2 first LRR region (1-285) (Q9VV73 1-285): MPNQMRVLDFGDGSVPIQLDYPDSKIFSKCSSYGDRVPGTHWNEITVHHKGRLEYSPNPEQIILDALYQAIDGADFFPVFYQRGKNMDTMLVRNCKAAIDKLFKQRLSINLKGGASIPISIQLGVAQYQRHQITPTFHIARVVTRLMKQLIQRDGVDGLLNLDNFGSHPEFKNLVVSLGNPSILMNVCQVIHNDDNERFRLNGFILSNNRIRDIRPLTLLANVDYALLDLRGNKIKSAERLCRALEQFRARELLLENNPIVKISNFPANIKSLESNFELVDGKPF

With AGCACCGUAAAGACGC (ssRNA) [16-mer ssRNA], the binding result is on record as “binds”.
